Measured values published in patent US20190016812A1.
Substitutions are numbered along the chain they refer to.

B1: SC113.119 (antibody, V domains shown)
VH: QVQLQQSGTELARPGASVRLSCKASGYTFTSYGLSWVKQRTGQGLEWIGEIFPGSGNSNYNENFKGKATLTADKSSSTAYMQVSSLSSEDSVVYFCARGGFDFWGQGTSLTVSS
VL: DIQMTQSPSSLSASLGERVSLTCRASQEITGYLSWLQQKPDGTIKRLIYAASTLDSGVPKRFSGSRSGSDYSLTISSLESEDFADYYCLQYARYPPTFGGGTKLEIK
B2: SC113.118 (antibody, V domains shown)
VH: B1 VH with R19K, V83L, S87T, E89D, F103Y, S109T
VL: B1 VL with T30S, Y32F
B3: SC113.172 (antibody, V domains shown)
VH: QGHLQQSGAELMKPGASVKISCKATGYTFSSYWIEWVKQRPGHGLEWIGEILPGSGSTHYNEKFKGKATFTADTSSNTAYMQLISLTSEDSAVYYCARRDAMDYWGQGTSVTVSS
VL: DIVMTQSPSSLTVTPGEKVTMSCKSSQSLLTSGNQKNYLTWYQQQPGQPPKLLIYWASTRESGVPDRFTGSGSGTDFTLTISSVQAEDLAVYYCQNDYSYPYTFGGGTKLEIK
B4: SC113.190 (antibody, V domains shown)
VH: QVQLQQPGAELVKPGASVKLSCKASGYTFTTYYMYWVKQRPGQGLEWIGGINPSNGDTDFNEKFKSKATLTVDKSSSTVYMQLSSLTPEDSAVYFCTSAGYTSWFAYWGQGTLVTVSA
VL: QIVLTQSPALMSASPGEKVTMTCSASSSVSYMNWYQQKPRSSPKPWIYLTSHLASGVPARFSGSGSGTSYSLTISSMEAEDAATYYCQQWSSKPPTFGSGTKLEIK
B5: SC113.187 (antibody, V domains shown)
VH: QVQLQQSGAELAKPGASVKMSCKASGYTFTSYWMYWVKQRPGQGLEWIGYINPSTGYTEYNQKFKDKATLTADKSSSTAYMQLNSLTSEDSAVYYCARSGYYGSSSLAYWGQGTLVTVSA
VL: NIVLTQSPASLAVSLGQRATISCRASESVDSYGNSFMHWYQQKPGQPPKLLIYLASNLESGVPARFSGSGSRTDFTLTIDPVEADDAATYYCQQNNEDPWTFGGGTKLEIK

target: human TNFSF9 (R&D Systems; #2295-4L-025/CF) (human) (UniProt P41273); test: MSD ELISA: TNFSF9 + 1 ug/mL antibody, binding to coated TNFRSF9
Sequence (P41273 71-254 limits assumed): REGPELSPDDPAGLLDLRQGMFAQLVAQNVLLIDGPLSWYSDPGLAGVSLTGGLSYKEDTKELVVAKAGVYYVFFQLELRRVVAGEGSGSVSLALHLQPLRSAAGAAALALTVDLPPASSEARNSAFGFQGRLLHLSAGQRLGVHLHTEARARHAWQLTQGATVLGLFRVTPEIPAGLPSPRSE

First: B1
Second: B2
The % inhibition of ligand receptor interaction of the first is lower: -8% for the first, 3% for the second.

First: B3
Second: B4
The % inhibition of ligand receptor interaction of the first is lower: -3% for the first, 8% for the second.

With B5 the % inhibition of ligand receptor interaction was -2%.
